Data taken from the supplement of paper PMC10598134.
± gives the standard deviation.

Test: collision cross section of modified peptide (TIMS, N2, iRT-aligned); higher = larger / more extended gas-phase ion
Experimental: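 1/K0 was aligned run-wise to spiked iRT peptides and converted to CCS in N2 (Mason-Schamp). Values are the mean of 1-3 technical replicates for the most abundant feature at each charge state.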

[1] = charge state: 2, modification: Crotonyl
[2] = charge state: 3, modification: Crotonyl
[3] = charge state: 2, modification: Dimethyl (K)
[4] = charge state: 3, modification: Dimethyl (K)
[5] = charge state: 2, modification: Formyl
[6] = charge state: 2, modification: Glutarylation
[7] = charge state: 3, modification: Glutarylation
[8] = charge state: 2, modification: GlyGly (K)
[9] = charge state: 3, modification: GlyGly (K)
[10] = charge state: 2, modification: Malonyl
[11] = charge state: 2, modification: Methyl (K)
[12] = charge state: 3, modification: Methyl (K)
[13] = charge state: 2, modification: Succinyl
[14] = charge state: 3, modification: Succinyl
[15] = charge state: 2, modification: Trimethyl (K)
[16] = charge state: 3, modification: Trimethyl (K)
[17] = charge state: 2, modification: hydroxyisobutyryl
[18] = charge state: 3, modification: hydroxyisobutyryl
[19] = charge state: 3, modification: Citrullination (R)
[20] = charge state: 2, modification: Nitro (Y)
[21] = charge state: 3, modification: Nitro (Y)
[22] = charge state: 2, modification: Phospho (Y)
[23] = charge state: 3, modification: Phospho (Y)
[24] = charge state: 2, modification: Acetyl (K)
[25] = charge state: 3, modification: Acetyl (K)
[26] = charge state: 2, modification: Biotin
[27] = charge state: 3, modification: Biotin
[28] = charge state: 2, modification: Butyryl
[29] = charge state: 3, modification: Butyryl
[30] = charge state: 3, modification: Formyl
[31] = charge state: 3, modification: Malonyl

For “ATVASSTQKFQDLGVK [_ATVASSTQK(Crotonyl)FQDLGVK_]”, the collision cross section [1] was 452.45 ± 0.83 Å² and the collision cross section [2] was 494.25 ± 1.6 Å².
For “ATVASSTQKFQDLGVK [_ATVASSTQK(Dimethyl (K))FQDLGVK_]”, the collision cross section [3] was 461.58 ± 1.2 Å² and the collision cross section [4] was 471.81 ± 2.1 Å².
With “ATVASSTQKFQDLGVK [_ATVASSTQK(Formyl)FQDLGVK_]” the collision cross section [5] was 442.05 ± 0.78 Å².
In the case of “ATVASSTQKFQDLGVK [_ATVASSTQK(Gluratylation)FQDLGVK_]”, the collision cross section [6] is reported as 449.16 ± 1.1 Å² and the collision cross section [7] is reported as 497.84 ± 1.7 Å².
Sequence “ATVASSTQKFQDLGVK [_ATVASSTQK(GlyGly (K))FQDLGVK_]” has a collision cross section [8] of 480.31 ± 1.5 Å² and a collision cross section [9] of 500.25 ± 0.34 Å².
“ATVASSTQKFQDLGVK [_ATVASSTQK(Malonyl)FQDLGVK_]” showed a collision cross section [10] of 440.93 ± 1 Å².
“ATVASSTQKFQDLGVK [_ATVASSTQK(Methyl (K))FQDLGVK_]” showed a collision cross section [11] of 464.26 ± 2.2 Å² and a collision cross section [12] of 478.87 ± 3.4 Å².
With “ATVASSTQKFQDLGVK [_ATVASSTQK(Succinyl)FQDLGVK_]” the collision cross section [13] was 444.76 ± 1.1 Å² and the collision cross section [14] was 493.48 ± 0.68 Å².
With “ATVASSTQKFQDLGVK [_ATVASSTQK(Trimethyl (K))FQDLGVK_]” the collision cross section [15] was 475.64 ± 1.1 Å² and the collision cross section [16] was 477.04 ± 1.8 Å².
Work on “ATVASSTQKFQDLGVK [_ATVASSTQK(hydroxyisobutyryl)FQDLGVK_]” yielded a collision cross section [17] of 453.68 ± 1.4 Å² and a collision cross section [18] of 498.28 ± 1.6 Å².
With “AVAITQSPSSVR [_AVAIT(HexNAc (ST))QSPSSVR_]” the collision cross section (charge state: 2, modification: HexNAc (ST)) was 390.4 ± 0.13 Å².
Work on “AVPSSPAGSAARGR [_AVPSSPAGSAAR(Citrullination (R))GR_]” yielded a collision cross section (charge state: 2, modification: Citrullination (R)) of 365.96 ± 0.94 Å² and a collision cross section [19] of 481.37 ± 0.56 Å².
“AVPSSPAGSAARGR [_AVPSSPAGSAAR(Methyl (R))GR_]” gave a collision cross section (charge state: 2, modification: Methyl (R)) of 387.69 ± 1.4 Å² and a collision cross section (charge state: 3, modification: Methyl (R)) of 492.48 ± 1.5 Å².
“AVSILPLLGHGVPRLPPGR [_AVSILPLLGHGVPR(Citrullination (R))LPPGR_]” showed a collision cross section [19] of 569.33 Å².
Work on AYDATHLVK [_AY(Nitro (Y))DATHLVK_] yielded a collision cross section [20] of 358.23 ± 0.55 Å² and a collision cross section [21] of 417.35 Å².
AYDATHLVK [_AY(Phospho (Y))DATHLVK_] gave a collision cross section [22] of 354.67 ± 0.75 Å² and a collision cross section [23] of 427.71 Å².
AYGELPEHAK [_AY(Nitro (Y))GELPEHAK_] gave a collision cross section [20] of 361.5 ± 1.2 Å² and a collision cross section [21] of 445.86 ± 1.2 Å².
AYGELPEHAK [_AY(Phospho (Y))GELPEHAK_] showed a collision cross section [22] of 362.96 ± 0.74 Å² and a collision cross section [23] of 450.05 Å².
Sequence AYILNLVK [_AY(Nitro (Y))ILNLVK_] has a collision cross section [20] of 333.68 ± 0.72 Å².
With AYILNLVK [_AY(Phospho (Y))ILNLVK_] the collision cross section [22] was 363.28 ± 0.69 Å².
Sequence AYPLADAHLTK [_AY(Nitro (Y))PLADAHLTK_] has a collision cross section [20] of 382.67 ± 0.55 Å².
“AYPLADAHLTK [_AY(Phospho (Y))PLADAHLTK_]” showed a collision cross section [22] of 380.31 ± 0.063 Å² and a collision cross section [23] of 465.22 ± 1 Å².
For CQGGQETQEYR [_CQGGQETQEY(Nitro (Y))R_], the collision cross section [20] was 375.36 ± 1.3 Å².
In the case of “CQGGQETQEYR [_CQGGQETQEY(Phospho (Y))R_]”, the collision cross section [22] is reported as 381.17 Å².
Sequence “CSVLAAANPVYGR [_CSVLAAANPVY(Nitro (Y))GR_]” has a collision cross section [20] of 387.22 ± 0.17 Å².
“CSVLAAANPVYGR [_CSVLAAANPVY(Phospho (Y))GR_]” showed a collision cross section [22] of 407.91 ± 1.2 Å².
CYYGSDTAGR [_CY(Nitro (Y))YGSDTAGR_] showed a collision cross section [20] of 352.25 ± 0.8 Å².
With CYYGSDTAGR [_CY(Phospho (Y))YGSDTAGR_] the collision cross section [22] was 358.39 Å².
Work on “DAEAAEATAEGALKAEK [_DAEAAEATAEGALK(Acetyl (K))AEK_]” yielded a collision cross section [24] of 451.64 ± 19 Å² and a collision cross section [25] of 539.19 ± 1.8 Å².
“DAEAAEATAEGALKAEK [_DAEAAEATAEGALK(Biotin)AEK_]” gave a collision cross section [26] of 451.86 Å² and a collision cross section [27] of 551.51 Å².
Sequence “DAEAAEATAEGALKAEK [_DAEAAEATAEGALK(Butyryl)AEK_]” has a collision cross section [28] of 461.9 ± 22 Å² and a collision cross section [29] of 544.71 ± 2 Å².
“DAEAAEATAEGALKAEK [_DAEAAEATAEGALK(Crotonyl)AEK_]” showed a collision cross section [1] of 474.87 ± 0.81 Å² and a collision cross section [2] of 545.42 ± 1.3 Å².
Sequence “DAEAAEATAEGALKAEK [_DAEAAEATAEGALK(Dimethyl (K))AEK_]” has a collision cross section [3] of 461.24 ± 1.8 Å² and a collision cross section [4] of 536.26 ± 0.61 Å².
With “DAEAAEATAEGALKAEK [_DAEAAEATAEGALK(Formyl)AEK_]” the collision cross section [5] was 428.82 ± 0.71 Å² and the collision cross section [30] was 534.4 ± 0.57 Å².
Work on “DAEAAEATAEGALKAEK [_DAEAAEATAEGALK(Gluratylation)AEK_]” yielded a collision cross section [6] of 438.1 ± 0.96 Å² and a collision cross section [7] of 545.34 ± 0.13 Å².
“DAEAAEATAEGALKAEK [_DAEAAEATAEGALK(GlyGly (K))AEK_]” gave a collision cross section [8] of 475 ± 1.6 Å² and a collision cross section [9] of 538.51 ± 1.1 Å².
With “DAEAAEATAEGALKAEK [_DAEAAEATAEGALK(Malonyl)AEK_]” the collision cross section [10] was 425.91 ± 1 Å² and the collision cross section [31] was 541.5 Å².
“DAEAAEATAEGALKAEK [_DAEAAEATAEGALK(Methyl (K))AEK_]” gave a collision cross section [11] of 456.59 ± 2.6 Å² and a collision cross section [12] of 536.13 ± 1.5 Å².
“DAEAAEATAEGALKAEK [_DAEAAEATAEGALK(Propionyl)AEK_]” showed a collision cross section (charge state: 2, modification: Propionyl) of 451.16 ± 23 Å².
Work on “DAEAAEATAEGALKAEK [_DAEAAEATAEGALK(Succinyl)AEK_]” yielded a collision cross section [13] of 437.62 ± 0.51 Å² and a collision cross section [14] of 541.32 ± 2 Å².
In the case of “DAEAAEATAEGALKAEK [_DAEAAEATAEGALK(Trimethyl (K))AEK_]”, the collision cross section [15] is reported as 469.97 ± 1 Å² and the collision cross section [16] is reported as 535.87 ± 1.1 Å².
For “DAEAAEATAEGALKAEK [_DAEAAEATAEGALK(hydroxyisobutyryl)AEK_]”, the collision cross section [17] was 435.11 ± 0.29 Å² and the collision cross section [18] was 547.8 ± 2.1 Å².
In the case of “DAIHFYNKSLAEHR [_DAIHFYNK(Acetyl (K))SLAEHR_]”, the collision cross section [24] is reported as 449.95 Å² and the collision cross section [25] is reported as 504.71 ± 0.24 Å².
“DAIHFYNKSLAEHR [_DAIHFYNK(Butyryl)SLAEHR_]” gave a collision cross section [28] of 452.1 Å² and a collision cross section [29] of 511.38 ± 1.6 Å².
With “DAIHFYNKSLAEHR [_DAIHFYNK(Crotonyl)SLAEHR_]” the collision cross section [2] was 509.89 ± 2 Å².
Work on “DAIHFYNKSLAEHR [_DAIHFYNK(Dimethyl (K))SLAEHR_]” yielded a collision cross section [4] of 497.01 ± 1.6 Å².
“DAIHFYNKSLAEHR [_DAIHFYNK(Formyl)SLAEHR_]” showed a collision cross section [5] of 447.82 Å² and a collision cross section [30] of 498.82 ± 2.2 Å².
In the case of “DAIHFYNKSLAEHR [_DAIHFYNK(Gluratylation)SLAEHR_]”, the collision cross section [6] is reported as 458.31 Å² and the collision cross section [7] is reported as 515.3 ± 0.96 Å².
Sequence “DAIHFYNKSLAEHR [_DAIHFYNK(GlyGly (K))SLAEHR_]” has a collision cross section [9] of 519.9 ± 0.35 Å².
For “DAIHFYNKSLAEHR [_DAIHFYNK(Malonyl)SLAEHR_]”, the collision cross section [31] was 505.96 ± 0.89 Å².
Sequence “DAIHFYNKSLAEHR [_DAIHFYNK(Methyl (K))SLAEHR_]” has a collision cross section [11] of 441.67 Å² and a collision cross section [12] of 502.11 ± 2.1 Å².
“DAIHFYNKSLAEHR [_DAIHFYNK(Succinyl)SLAEHR_]” gave a collision cross section [13] of 453.03 Å² and a collision cross section [14] of 520.54 ± 0.35 Å².
With “DAIHFYNKSLAEHR [_DAIHFYNK(Trimethyl (K))SLAEHR_]” the collision cross section [16] was 498.17 ± 1.1 Å².
Work on “DAIHFYNKSLAEHR [_DAIHFYNK(hydroxyisobutyryl)SLAEHR_]” yielded a collision cross section [18] of 512.82 ± 2.8 Å².
“DASTLQSQKAEGTGDAK [_DASTLQSQK(Acetyl (K))AEGTGDAK_]” showed a collision cross section [24] of 431.11 ± 1.6 Å² and a collision cross section [25] of 508.84 ± 0.99 Å².
Work on “DASTLQSQKAEGTGDAK [_DASTLQSQK(Biotin)AEGTGDAK_]” yielded a collision cross section [26] of 450.36 ± 0.63 Å² and a collision cross section [27] of 520.24 ± 1.3 Å².
“DASTLQSQKAEGTGDAK [_DASTLQSQK(Butyryl)AEGTGDAK_]” gave a collision cross section [28] of 440.14 ± 0.24 Å² and a collision cross section [29] of 511.91 ± 3.5 Å².
With “DASTLQSQKAEGTGDAK [_DASTLQSQK(Crotonyl)AEGTGDAK_]” the collision cross section [1] was 438.12 ± 0.54 Å² and the collision cross section [2] was 513.07 ± 2.8 Å².
In the case of “DASTLQSQKAEGTGDAK [_DASTLQSQK(Dimethyl (K))AEGTGDAK_]”, the collision cross section [3] is reported as 438.33 ± 1.3 Å² and the collision cross section [4] is reported as 482.19 ± 4.5 Å².
Work on “DASTLQSQKAEGTGDAK [_DASTLQSQK(Formyl)AEGTGDAK_]” yielded a collision cross section [5] of 431.62 ± 0.17 Å² and a collision cross section [30] of 503.35 ± 3 Å².
With “DASTLQSQKAEGTGDAK [_DASTLQSQK(Gluratylation)AEGTGDAK_]” the collision cross section [6] was 440.54 ± 1.5 Å² and the collision cross section [7] was 515.28 ± 0.85 Å².
“DASTLQSQKAEGTGDAK [_DASTLQSQK(GlyGly (K))AEGTGDAK_]” showed a collision cross section [8] of 451.81 ± 1.4 Å² and a collision cross section [9] of 505.67 ± 1.1 Å².
